We go through four proteins from patent US20200299738.

Data set [1] concerns the target T1, E. rectale acyl carrier protein (T protein; gene ereT).
T1 chain: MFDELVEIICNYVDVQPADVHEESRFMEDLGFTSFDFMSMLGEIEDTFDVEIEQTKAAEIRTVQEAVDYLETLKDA

For data set [2], the target named is T2, C. eutactus acyl carrier protein (T protein; gene ceuT).
T2 chain: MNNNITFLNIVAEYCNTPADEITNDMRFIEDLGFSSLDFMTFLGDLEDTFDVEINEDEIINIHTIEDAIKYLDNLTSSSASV

B1: C. eutactus fatty acyl-ACP synthetase (A protein; gene ceuA) (protein)
chain: MEENILEIVEKSCRIHRDVIAVKYLSHREIVEKSYGDMWDDIRKTAVILRNNGLCGTHIALVGSSSYEWICAYMAILFTGNTAVPLDANLSVSELHELLNRSGSIALFCGASRKDVITELTDDCPEMNIVFTMEKKVDIEHLEGADSNPQLAILSFEQLRNEITIPDDFAFADQDKDKMCTLMYTSGTTGKSKGVMLSQFNLAQNVENVYVNLEPGVTILSVLPIHHAFCLTMEWMKGISLGATICINDSLLHMLKNMKRFQPVGMLMVPLMVETIYKKLKDVNPLLPKKLVAKEAFGGKLEYIFCGGAYLDPMYVTEFKKYGIDILQGYGMTECSPVICSNNHRYNRPGSVGKLLDNCAVRFVDEEIQVKGTSVMSGYYDMPNETAEAFQDGWLCTGDLGYLDSDGFMYITGRKKNLIILANGENISPEELEGKLSIEPLISEIVITGDGNHLTAHIYPDQDFVDKKHMDAARTSEKLQKIIDTFNKNQPTYKRISALDIRKEPFEKSSTKKIKRNLV
Regarding B1, the “adenylation activity after swapping the T protein between the C. eutactus and E. rectale pathways” value in data set [1] is on record as “While the C protein lost activity, the A protein retained activity after swapping the T protein”.

B2: E. rectale fatty acyl-ACP synthetase (A protein; gene ereA) (protein)
chain: MLFHTIPDILSYANEAYGADDAIRWKKSKNEIESRTYSELKNDTDSFANAIEKLGKKGQHIAVIGPSSYEWIVSYLAITESGSVAVPIDASLPAADICELLDRASVRMLIFDEARSDVAEAAAKSCHDINVYVSMNSTEHCPQVLSFKGLIDDNRGSYEPAVAEDALCTIMFTSGTTGKSKGVMLTQNNLAENATCLDMKIGPHTVILSVLPIHHAYCLSMDILKGISLGSVICINDSIMRMAKNIQLFTPDMILMVPLMIETFARKLEEVRAAGLPAEPVRKKMFGERLHTICSGGAYLNPDYVDLFAEFGITILQGYGMTECSPVISTNLSWDIRKNSVGKLMPNCEAKTVDGELFVRGTSVMQGYYKMPKETEETLSDGWLHTGDLGYVDEDGYIYLTGRRKNLIITKNGENVSPEELENALSVNHLIKEIIVRESEGVIEAEIFPDREYAQNTGIADIRSALQALIDEYNVNAPAYKRIYSIKVRESEFEKTASRKIKRS
In the case of B2, the “adenylation activity after swapping the T protein between the C. eutactus and E. rectale pathways” value in data set [2] was “While the C protein lost activity, the A protein retained activity after swapping the T protein”. Moreover, in data set [1], the “LC-MS/MS detection of fatty acid thiotemplated T protein fragment after reaction with the A protein, Sfp and lauric acid” value is on record as “This was further confirmed by the detection of fatty acid thiotemplated T protein fragment using LC-MS/MS (FIG. 22)”; the “PPi level from ATP consumption (A and T proteins relative to negative control)” value is on record as “Up to 30-fold increase in PPi level relative to negative control was observed with fatty acid substrates”.

B3: C. eutactus condensation domain protein (fatty acyl-transferase, C protein; gene ceuC) (protein)
chain: MPRKYYPLTPSQKIHFKPIIEFGTQQVANISICMTLQAPLDFGLLKKCIQLEYERYECLRIRFTKVDQNGEVRQYVVSRDDRDIDYENLSWLSGDDAYHRMEEWSRIPFDGDNIPMNVIKMISLPGGYNGLYIKIDHRLMDSCGAIVMVNDIMELYCHYKFGTPYPEDMASFTDMVERDLKKSTDEKRVSKDRMYWQNVLEENGEPIYSDIQGQRILQESRRLHNDKSLRAADQEINDLSVATKNYHLDAEPTQNLLDFCMNNHISMTNLILMGIRTYLSKANGGQTDISIRNYVSRRSTHAEWVSGGSRAMAYPCRTIIDPDTEFLDAVFMIQDVQNHVYRHCNYDPELLSDQMKEMFHTPPHTTYESVGLTYQPLPIRLKNPHLENISVRSMWIPNGTSKQKIYLTVMHSANDLGLNFYFRYQTASLSEQDIELFYYYLMKIIFKGIAEPEMTVGEIIECI
B3: in data set [2], the “enzymatic production of hybrid FAA with the T and C protein pair from the same pathway and a swapped A protein” value is “Swapping the A domain, while retaining the T and C protein pair from the same pathway, permitted the enzymatic production of hybrid FAA that incorporated the substrates from two different pathways”. In addition, in data set [1], the “condensation activity (enzyme-catalysed FAA product formation) after swapping the T protein between the C. eutactus and E. rectale pathways” value is on record as “While the C protein lost activity, the A protein retained activity after swapping the T protein”.

B4: E. rectale condensation domain protein (fatty acyl-transferase, C protein; gene ereC) (protein)
chain: MKTRKGHNVYPITVAQKFHLYYAKYCPNMAVLNIGTSLTIGTELDWNVLRDSINYAYARNEAMRIRFTRDKDGECYQYIADVDEDFKERTVDFKDFTDVTMEEAENEMQGWTQVPFEFEDSPMTKIVMIKMPDGFNGVYFLGHHMVVDAQSLIAFLKDIIEIYCNAMYEGVPFPKDMCSYIEQLKKDLAYEAGSKAQLRDREFFEKLIRQSEPIYNGIDGTAKLDAARELMHDNKLRSAFNASDDVTSALDIFHLEAEPTKRLMDFCEKYHISLACLLLMGIRTFFQKENGFDDVSVNNAIARRATLKEKKSGGTRIHSFPFRTCFSKDVRFIDAVYTIRDKQNELFRHANYNPTEYFALRSKTYPQPKAGLTYEPMSLTYQPMTLKEKGLNDLGDIKYKTKWYPNGMTTQAMYLTVMHRPEDNGLDFSFEHQVKAVSRKQLEYMYYYLCKIMFKGAENPELTIGEIIKLV
Consider B4, for which the “condensation activity (enzyme-catalysed FAA product formation) after swapping the T protein between the C. eutactus and E. rectale pathways” value in data set [2] was “While the C protein lost activity, the A protein retained activity after swapping the T protein”. Also, in data set [1], the “enzymatic production of hybrid FAA with the T and C protein pair from the same pathway and a swapped A protein” value was “Swapping the A domain, while retaining the T and C protein pair from the same pathway, permitted the enzymatic production of hybrid FAA that incorporated the substrates from two different pathways”.
